Experimental data reported in patent US20240400708A1.
Numbering of substitutions follows the chain as printed. Names may count otherwise. One block for each binder: values may come before it.

Columns and labels:
[1] = molecular target: feline FcRn complex (FcRn-α subunit and β-microglobulin) (feline); test: SPR (Biacore), FcRn on SA chip, pH 6
[2] = molecular target: feline FcRn complex (FcRn-α subunit and β-microglobulin) (feline); test: SPR (Biacore), FcRn on SA chip, pH 7.4
[3] = molecular target: Feline FcRn complex (FcRn-alpha subunit and beta-microglobulin) (feline); test: SPR (Biacore), feline FcRn captured on SA chip, IgG flowed over, pH 6

B1: feline IgG1a mutant ID No. 335: T250Q, S252H (antibody, part only; not given: Variable domains, not shown: another chain or arm of the molecule)
constant: ASTTAPSVFPLAPSCGTTSGATVALACLVLGYFPEPVTVSWNSGALTSGVHTFPAVLQASGLYSLSSMVTVPSSRWLSDTFTCNVAHPPSNTKVDKTVRKTDHPPGPKPCDCPKCPPPEMLGGPSIFIFPPKPKDQLHISRTPEVTCLVVDLGPDDSDVQITWFVDNTQVYTAKTSPREEQFNSTYRVVSVLPILHQDWLKGKEFKCKVNSKSLPSPIERTISKAKGQPHEPQVYVLPPAQEELSRNKVSVTCLIKSFHPPDIAVEWEITGQPEPENNYRTTPPQLDSDGTYFVYSKLSVDRSHWQRGNTYTCSVSHEALHSHHTQKSLTQSPGK
Kd [1]: 8.02 nM
Kd [2]: 36.9 nM

B4: feline IgG1a Fc mutant Q311Y, S428L (antibody, part only; not given: Variable domains, not shown: another chain or arm of the molecule; small tags and cut ends)
constant: B1 constant with Q136T, H138S, Q197Y, S316L
Kd [3]: 5.72 nM

B5: feline IgG1a Fc mutant S428M, S252H (antibody, part only; not given: Variable domains, not shown: another chain or arm of the molecule; small tags and cut ends)
constant: B1 constant with Q136T, S316M
Kd [3]: 6.83 nM

B8: feline IgG1a Fc mutant S428M, S252F (antibody, part only; not given: Variable domains, not shown: another chain or arm of the molecule; small tags and cut ends)
constant: B1 constant with Q136T, H138F, S316M
Kd [3]: 5.9 nM

B11: feline IgG1a Fc mutant S428L, S252Y (antibody, part only; not given: Variable domains, not shown: another chain or arm of the molecule)
constant: B1 constant with Q136T, H138Y, S316L
Kd [3]: 4.88 nM

B13: feline IgG1a Fc mutant S428L, S252H (antibody, part only; not given: variable domains and light chain, not shown: another chain or arm of the molecule; small tags and cut ends)
constant: B1 constant with Q136T, S316L
Kd [3]: 5.94 nM

B15: feline IgG1a Fc mutant S428L, S252F (antibody, part only; not given: Variable domains, not shown: another chain or arm of the molecule; small tags and cut ends)
constant: B1 constant with Q136T, H138F, S316L
Kd [3]: 6.52 nM

B19: feline IgG1a Fc mutant S428L, S434R (antibody, part only; not given: variable domains and light chain, not shown: another chain or arm of the molecule; small tags and cut ends)
constant: B1 constant with Q136T, H138S, S316L, S322R
Kd [3]: 4.66 nM

B20: feline IgG1a Fc mutant Q311M, S428L (antibody, part only; not given: Variable domains, not shown: another chain or arm of the molecule; small tags and cut ends)
constant: B1 constant with Q136T, H138S, Q197M, S316L
Kd [3]: 6.44 nM

B24: feline IgG1a Fc mutant Q311W, S428L (antibody, part only; not given: Variable domains, not shown: another chain or arm of the molecule; small tags and cut ends)
constant: B1 constant with Q136T, H138S, Q197W, S316L
Kd [3]: 8.08 nM

B25: feline IgG1a Fc mutant Q311L, S428L (antibody, part only; not given: Variable domains, not shown: another chain or arm of the molecule; small tags and cut ends)
constant: B1 constant with Q136T, H138S, Q197L, S316L
Kd [3]: 6.03 nM

More lines, now with the values ahead:

Kd [1]: 0.885 nM
Kd [2]: 44.8 nM
B2: feline IgG1a mutant ID No. 367: S252Y, S434R, G402R (antibody, part only; not given: Variable domains, not shown: another chain or arm of the molecule)
constant: B1 constant with Q136T, H138Y, G290R, S322R

Kd [1]: 1.55 nM
Kd [2]: 25.6 nM
B3: feline IgG1a mutant ID No. 377: S252Y, S434R, T256M (antibody, part only; not given: Variable domains, not shown: another chain or arm of the molecule)
constant: B1 constant with Q136T, H138Y, T142M, S322R

Kd [1]: 0.923 nM
Kd [2]: 38.9 nM
B6: feline IgG1a mutant ID No. 363: S252Y, S434R, D399T (antibody, part only; not given: Variable domains, not shown: another chain or arm of the molecule)
constant: B1 constant with Q136T, H138Y, D287T, S322R

Kd [1]: 1.09 nM
Kd [2]: 43.1 nM
B7: feline IgG1a mutant ID No. 360: S252Y, S434R, D312H (antibody, part only; not given: Variable domains, not shown: another chain or arm of the molecule)
constant: B1 constant with Q136T, H138Y, D198H, S322R

Kd [1]: 0.442 nM
Kd [2]: 26.5 nM
B9: feline IgG1a mutant ID No. 369: S252Y, S434R, P247L (antibody, part only; not given: Variable domains, not shown: another chain or arm of the molecule)
constant: B1 constant with P133L, Q136T, H138Y, S322R

Kd [1]: 0.041 nM
Kd [2]: 10.9 nM
B10: feline IgG1a mutant ID No. 343: S252Y, S428M, S434F, D399M (antibody, part only; not given: Variable domains, not shown: another chain or arm of the molecule; small tags and cut ends)
constant: B1 constant with Q136T, H138Y, D287M, S316M, S322F

Kd [1]: 1.3 nM
Kd [2]: 25.6 nM
B12: feline IgG1a mutant ID No. 368: S252Y, S434R, L314K (antibody, part only; not given: Variable domains, not shown: another chain or arm of the molecule)
constant: B1 constant with Q136T, H138Y, L200K, S322R

Kd [1]: 0.0353 nM
Kd [2]: 6.5 nM
B14: feline IgG1a mutant ID No. 341: S252Y, S428M, S434F, D312A (antibody, part only; not given: Variable domains, not shown: another chain or arm of the molecule; small tags and cut ends)
constant: B1 constant with Q136T, H138Y, D198A, S316M, S322F

Kd [1]: 0.626 nM
Kd [2]: 25.3 nM
B16: feline IgG1a mutant ID No. 359: S252Y, S434R, D312A (antibody, part only; not given: variable domains and light chain, not shown: another chain or arm of the molecule)
constant: B1 constant with Q136T, H138Y, D198A, S322R

Kd [1]: 0.0128 nM
Kd [2]: 11 nM
B17: feline IgG1a mutant ID No. 344: S252Y, S428M, S434F, D401R (antibody, part only; not given: Variable domains, not shown: another chain or arm of the molecule)
constant: B1 constant with Q136T, H138Y, D289R, S316M, S322F

Kd [1]: 0.0192 nM
Kd [2]: 4.46 nM
B18: feline IgG1a mutant ID No. 354: S252Y, S428M, S434F, T250Q (antibody, part only; not given: variable domains and light chain, not shown: another chain or arm of the molecule)
constant: B1 constant with H138Y, S316M, S322F

Kd [1]: 0.551 nM
Kd [2]: 34.1 nM
B21: feline IgG1a mutant ID No. 375: S252Y, S434R, S254V (antibody, part only; not given: Variable domains, not shown: another chain or arm of the molecule)
constant: B1 constant with Q136T, H138Y, S140V, S322R

Kd [1]: 0.0192 nM
Kd [2]: 4.78 nM
B22: feline IgG1a mutant ID No. 349: S252Y, S428M, S434F, Q311K (antibody, part only; not given: variable domains and light chain, not shown: another chain or arm of the molecule)
constant: B1 constant with Q136T, H138Y, Q197K, S316M, S322F

Kd [1]: 0.0249 nM
Kd [2]: 9.98 nM
B23: feline IgG1a mutant ID No. 356: S252Y, S428M, S434F, T403R (antibody, part only; not given: Variable domains, not shown: another chain or arm of the molecule)
constant: B1 constant with Q136T, H138Y, T291R, S316M, S322F

Kd [1]: 0.025 nM
Kd [2]: 3.3 nM
B26: feline IgG1a mutant ID No. 340: S252Y, S428M, S434F, Q311R (antibody, part only; not given: Variable domains, not shown: another chain or arm of the molecule)
constant: B1 constant with Q136T, H138Y, Q197R, S316M, S322F

Kd [1]: 0.0168 nM
Kd [2]: 6.73 nM
B27: feline IgG1a mutant ID No. 339: S252Y, S428M, S434F, P247L (antibody, part only; not given: Variable domains, not shown: another chain or arm of the molecule)
constant: B1 constant with P133L, Q136T, H138Y, S316M, S322F
